Experiments:
[1] = target: T1, bovine fibrinogen (Sigma Company), P02672
T1 chain 1: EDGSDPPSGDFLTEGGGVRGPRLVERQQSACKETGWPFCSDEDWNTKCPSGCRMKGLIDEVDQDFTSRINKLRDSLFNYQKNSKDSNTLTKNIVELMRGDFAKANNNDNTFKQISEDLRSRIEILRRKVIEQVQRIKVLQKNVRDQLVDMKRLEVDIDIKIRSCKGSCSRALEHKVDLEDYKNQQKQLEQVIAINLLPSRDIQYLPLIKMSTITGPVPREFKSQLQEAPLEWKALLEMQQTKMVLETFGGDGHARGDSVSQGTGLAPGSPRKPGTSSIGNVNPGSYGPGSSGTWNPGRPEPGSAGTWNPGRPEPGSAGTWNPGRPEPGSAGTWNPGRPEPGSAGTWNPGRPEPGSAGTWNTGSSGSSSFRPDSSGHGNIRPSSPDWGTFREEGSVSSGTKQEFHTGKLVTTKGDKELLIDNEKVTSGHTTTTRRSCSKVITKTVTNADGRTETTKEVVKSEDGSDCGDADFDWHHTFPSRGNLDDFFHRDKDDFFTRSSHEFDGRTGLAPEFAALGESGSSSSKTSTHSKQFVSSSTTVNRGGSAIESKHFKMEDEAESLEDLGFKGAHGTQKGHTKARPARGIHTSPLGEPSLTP
T1 chain 2: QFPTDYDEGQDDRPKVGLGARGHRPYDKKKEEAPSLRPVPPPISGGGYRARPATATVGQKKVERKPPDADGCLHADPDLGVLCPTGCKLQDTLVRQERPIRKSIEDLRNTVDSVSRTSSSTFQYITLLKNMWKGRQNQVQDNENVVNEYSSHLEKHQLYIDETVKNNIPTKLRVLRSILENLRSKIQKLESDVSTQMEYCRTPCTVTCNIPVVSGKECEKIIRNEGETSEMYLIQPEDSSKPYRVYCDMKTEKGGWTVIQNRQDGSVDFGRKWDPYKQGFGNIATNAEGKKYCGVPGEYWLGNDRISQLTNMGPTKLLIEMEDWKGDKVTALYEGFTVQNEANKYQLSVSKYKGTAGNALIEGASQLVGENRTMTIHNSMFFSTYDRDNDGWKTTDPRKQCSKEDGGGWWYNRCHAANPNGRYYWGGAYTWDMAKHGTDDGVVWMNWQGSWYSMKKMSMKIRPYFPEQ
T1 chain 3: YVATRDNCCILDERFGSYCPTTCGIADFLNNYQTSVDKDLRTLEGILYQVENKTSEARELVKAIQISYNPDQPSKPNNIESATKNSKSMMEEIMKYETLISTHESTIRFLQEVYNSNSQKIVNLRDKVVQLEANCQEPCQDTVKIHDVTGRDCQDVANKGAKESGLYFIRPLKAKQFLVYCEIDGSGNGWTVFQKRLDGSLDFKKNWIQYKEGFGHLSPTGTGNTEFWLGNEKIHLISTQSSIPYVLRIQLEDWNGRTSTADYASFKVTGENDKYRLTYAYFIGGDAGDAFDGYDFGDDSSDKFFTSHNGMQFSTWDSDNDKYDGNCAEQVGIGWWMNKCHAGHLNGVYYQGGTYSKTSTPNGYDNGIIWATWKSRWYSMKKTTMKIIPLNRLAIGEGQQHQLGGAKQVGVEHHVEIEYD

human fibrinogen, P02671 = target: T2, human fibrinogen, P02671
T2 chain 1: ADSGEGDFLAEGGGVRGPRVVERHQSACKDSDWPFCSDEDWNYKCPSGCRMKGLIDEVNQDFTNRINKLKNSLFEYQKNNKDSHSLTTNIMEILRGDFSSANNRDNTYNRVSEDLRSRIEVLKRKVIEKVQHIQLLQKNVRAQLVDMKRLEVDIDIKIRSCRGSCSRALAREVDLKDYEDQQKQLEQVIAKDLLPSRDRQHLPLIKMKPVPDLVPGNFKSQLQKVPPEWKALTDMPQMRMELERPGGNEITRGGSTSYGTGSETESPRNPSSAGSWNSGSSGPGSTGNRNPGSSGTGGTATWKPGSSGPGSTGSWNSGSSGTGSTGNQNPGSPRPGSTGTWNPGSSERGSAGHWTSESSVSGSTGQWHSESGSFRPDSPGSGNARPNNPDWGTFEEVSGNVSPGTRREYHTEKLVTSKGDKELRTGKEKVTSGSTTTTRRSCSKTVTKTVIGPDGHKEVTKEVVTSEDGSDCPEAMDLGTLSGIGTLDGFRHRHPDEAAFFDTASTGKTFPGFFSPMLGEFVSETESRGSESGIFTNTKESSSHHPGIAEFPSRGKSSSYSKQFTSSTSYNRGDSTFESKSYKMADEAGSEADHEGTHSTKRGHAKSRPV
T2 chain 2: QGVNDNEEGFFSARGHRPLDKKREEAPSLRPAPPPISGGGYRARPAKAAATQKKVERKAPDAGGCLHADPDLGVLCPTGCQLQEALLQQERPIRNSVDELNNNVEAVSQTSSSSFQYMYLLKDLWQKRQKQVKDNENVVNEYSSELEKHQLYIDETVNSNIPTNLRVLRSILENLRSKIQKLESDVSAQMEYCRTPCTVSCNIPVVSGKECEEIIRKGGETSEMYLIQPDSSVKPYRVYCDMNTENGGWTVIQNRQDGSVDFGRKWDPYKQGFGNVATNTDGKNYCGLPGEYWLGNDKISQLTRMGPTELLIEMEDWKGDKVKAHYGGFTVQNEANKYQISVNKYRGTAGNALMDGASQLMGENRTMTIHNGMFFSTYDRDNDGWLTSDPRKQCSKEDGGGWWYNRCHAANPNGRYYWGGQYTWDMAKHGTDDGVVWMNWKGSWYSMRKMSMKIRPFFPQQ
T2 chain 3: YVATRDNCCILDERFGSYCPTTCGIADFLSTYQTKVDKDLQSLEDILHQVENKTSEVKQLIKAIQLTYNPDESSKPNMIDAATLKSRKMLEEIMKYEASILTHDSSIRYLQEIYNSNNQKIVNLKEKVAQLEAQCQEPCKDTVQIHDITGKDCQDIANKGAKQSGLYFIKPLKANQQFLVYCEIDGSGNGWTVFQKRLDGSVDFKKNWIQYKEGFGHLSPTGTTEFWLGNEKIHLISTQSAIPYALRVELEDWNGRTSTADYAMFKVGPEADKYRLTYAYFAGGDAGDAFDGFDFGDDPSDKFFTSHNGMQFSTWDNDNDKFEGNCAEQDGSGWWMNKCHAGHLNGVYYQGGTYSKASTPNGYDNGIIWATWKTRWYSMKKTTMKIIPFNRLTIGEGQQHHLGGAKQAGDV

B1: hemocoagulase of Agkistrodon acutus (protein)
chain 1: DCSSGWSSYEGHCYKVFKQSKTWADAESFCTKQVNGGHLVSLESSGEADFVGQLLAQKLKSAKLHVWLGLRAQNKEKQCSLQWSDGSSLSYENWLEEESKKCLGVHLETGFHKWENFYCEQQDPFVCEA
chain 2: DCPSDWSSYEGHCYKPFNEPKNWADAENFCTKQHTGGHLVSFQSTEEADFVVKLAFQTFDYGLFWFGLSKLWNQCNWQWSNAAMLKYTDWAEESYCVYFKSTNNKWRSLTCRMLANFVCEFQA
- Agglutination time (tube 1#, 10 µl distilled water added) [1]: 50 s
- Agglutination time (tube 2#, 10 µl isopropanol added) [1]: 50 s
- Agglutination time (tube 3#, 10 µl PMSF added) [1]: more than 600 seconds
- hydrolysis of human fibrinogen, SDS-PAGE after 0.5 h, 1 h, 2 h and 4 h at 37° C. (human fibrinogen, P02671): After the fibrinogen was treated with the hemocoagulase (1 unit) for 0.5 h and 1 h, the band of alpha subunit became gradually light, and after being treated for 2 h and 4 h, the band of alpha subunit disappeared completely
